# Laboratory results reported in US11708609.
# Target: human recombinant FOXO1 (Origene #TP300477) (UniProt Q12778)
# Sequence (Q12778 whole entry): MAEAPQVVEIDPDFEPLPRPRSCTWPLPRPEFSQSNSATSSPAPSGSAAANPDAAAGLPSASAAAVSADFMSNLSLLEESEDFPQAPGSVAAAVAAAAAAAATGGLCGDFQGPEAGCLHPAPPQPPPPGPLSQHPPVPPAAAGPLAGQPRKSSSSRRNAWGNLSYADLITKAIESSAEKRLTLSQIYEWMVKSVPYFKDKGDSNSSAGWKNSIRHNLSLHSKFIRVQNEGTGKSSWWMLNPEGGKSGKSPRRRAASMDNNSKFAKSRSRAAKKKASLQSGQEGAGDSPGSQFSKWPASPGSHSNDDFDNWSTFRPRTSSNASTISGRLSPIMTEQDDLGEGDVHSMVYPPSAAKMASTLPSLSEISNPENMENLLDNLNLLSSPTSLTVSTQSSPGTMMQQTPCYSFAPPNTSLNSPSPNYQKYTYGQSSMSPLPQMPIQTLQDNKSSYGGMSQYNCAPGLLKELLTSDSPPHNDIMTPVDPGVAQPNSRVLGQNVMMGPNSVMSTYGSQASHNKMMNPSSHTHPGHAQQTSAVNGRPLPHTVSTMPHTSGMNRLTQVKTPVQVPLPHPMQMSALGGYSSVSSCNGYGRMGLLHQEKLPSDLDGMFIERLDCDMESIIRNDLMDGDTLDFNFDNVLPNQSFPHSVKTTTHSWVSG
# Sequence of microtubule-associated Ser/Thr kinase 4 (MAST4), immunoprecipitated from lysates of neuron-differentiated SH-SY5Y cells or of human temporal lobe autopsy samples (chain, as listed by the source): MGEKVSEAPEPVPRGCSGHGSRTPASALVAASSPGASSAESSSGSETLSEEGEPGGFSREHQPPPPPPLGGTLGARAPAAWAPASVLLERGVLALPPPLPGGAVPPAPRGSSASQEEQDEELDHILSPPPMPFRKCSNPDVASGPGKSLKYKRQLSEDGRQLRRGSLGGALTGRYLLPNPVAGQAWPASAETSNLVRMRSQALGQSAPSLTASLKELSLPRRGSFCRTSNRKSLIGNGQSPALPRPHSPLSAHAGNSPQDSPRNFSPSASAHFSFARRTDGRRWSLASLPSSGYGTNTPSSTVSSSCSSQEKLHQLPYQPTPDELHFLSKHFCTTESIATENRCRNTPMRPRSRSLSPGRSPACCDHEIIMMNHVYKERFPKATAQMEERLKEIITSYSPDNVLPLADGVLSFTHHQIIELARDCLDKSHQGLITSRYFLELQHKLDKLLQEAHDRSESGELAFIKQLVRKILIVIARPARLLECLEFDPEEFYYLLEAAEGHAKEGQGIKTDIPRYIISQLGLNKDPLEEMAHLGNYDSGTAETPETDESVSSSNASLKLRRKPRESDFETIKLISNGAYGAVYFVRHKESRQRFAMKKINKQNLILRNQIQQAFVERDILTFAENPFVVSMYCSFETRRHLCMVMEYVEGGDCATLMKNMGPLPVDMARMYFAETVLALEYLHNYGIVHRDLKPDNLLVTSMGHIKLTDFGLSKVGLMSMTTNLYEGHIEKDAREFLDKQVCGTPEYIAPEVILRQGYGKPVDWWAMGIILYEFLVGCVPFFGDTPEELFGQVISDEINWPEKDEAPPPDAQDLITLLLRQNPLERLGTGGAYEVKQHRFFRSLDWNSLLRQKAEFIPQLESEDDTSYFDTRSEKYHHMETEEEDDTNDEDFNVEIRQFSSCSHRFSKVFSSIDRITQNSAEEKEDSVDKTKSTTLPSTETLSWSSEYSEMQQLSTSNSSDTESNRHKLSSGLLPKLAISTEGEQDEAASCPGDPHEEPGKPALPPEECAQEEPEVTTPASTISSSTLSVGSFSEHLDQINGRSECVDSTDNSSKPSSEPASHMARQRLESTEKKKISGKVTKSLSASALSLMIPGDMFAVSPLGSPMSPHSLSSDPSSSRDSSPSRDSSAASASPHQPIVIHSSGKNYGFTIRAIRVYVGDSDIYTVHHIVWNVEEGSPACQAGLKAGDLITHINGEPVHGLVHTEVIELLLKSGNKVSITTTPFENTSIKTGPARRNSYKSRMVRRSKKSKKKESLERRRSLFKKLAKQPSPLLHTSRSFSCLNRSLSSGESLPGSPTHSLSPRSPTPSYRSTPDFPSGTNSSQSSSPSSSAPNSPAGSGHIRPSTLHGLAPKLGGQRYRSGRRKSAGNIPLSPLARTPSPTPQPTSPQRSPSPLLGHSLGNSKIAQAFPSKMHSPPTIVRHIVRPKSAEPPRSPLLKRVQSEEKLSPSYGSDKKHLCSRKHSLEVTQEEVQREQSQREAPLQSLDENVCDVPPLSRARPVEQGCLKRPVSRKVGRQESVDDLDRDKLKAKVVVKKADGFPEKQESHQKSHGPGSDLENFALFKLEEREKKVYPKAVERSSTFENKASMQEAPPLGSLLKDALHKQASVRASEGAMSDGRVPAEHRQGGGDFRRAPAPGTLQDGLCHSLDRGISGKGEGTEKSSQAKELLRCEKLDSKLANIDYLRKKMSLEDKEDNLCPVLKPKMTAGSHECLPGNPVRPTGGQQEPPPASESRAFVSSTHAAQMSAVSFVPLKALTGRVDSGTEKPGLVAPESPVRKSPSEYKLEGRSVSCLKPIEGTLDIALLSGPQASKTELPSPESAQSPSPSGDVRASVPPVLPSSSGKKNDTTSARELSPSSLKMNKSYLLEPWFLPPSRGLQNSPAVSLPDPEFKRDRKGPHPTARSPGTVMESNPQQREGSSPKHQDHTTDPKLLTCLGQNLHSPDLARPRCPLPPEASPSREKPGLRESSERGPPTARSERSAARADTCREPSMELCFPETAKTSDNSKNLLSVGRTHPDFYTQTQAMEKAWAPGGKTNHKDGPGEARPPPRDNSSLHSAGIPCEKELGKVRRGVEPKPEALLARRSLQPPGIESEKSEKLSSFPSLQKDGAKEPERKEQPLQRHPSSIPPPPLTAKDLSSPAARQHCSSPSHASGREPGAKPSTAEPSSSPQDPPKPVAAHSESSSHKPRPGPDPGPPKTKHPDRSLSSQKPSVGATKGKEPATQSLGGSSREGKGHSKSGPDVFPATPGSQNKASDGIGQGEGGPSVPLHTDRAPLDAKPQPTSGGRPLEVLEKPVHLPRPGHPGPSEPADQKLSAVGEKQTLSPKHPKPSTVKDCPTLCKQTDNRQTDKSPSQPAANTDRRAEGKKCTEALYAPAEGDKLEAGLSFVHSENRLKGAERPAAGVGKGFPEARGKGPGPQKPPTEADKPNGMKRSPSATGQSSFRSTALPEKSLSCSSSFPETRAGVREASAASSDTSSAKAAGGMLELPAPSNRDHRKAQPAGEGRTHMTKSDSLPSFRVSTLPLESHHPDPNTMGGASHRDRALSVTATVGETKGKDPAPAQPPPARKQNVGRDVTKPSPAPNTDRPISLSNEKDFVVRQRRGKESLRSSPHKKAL
Substance,FOXO1 phosphorylation (pSer-FOXO1) in an in vitro kinase assay with immunoprecipitated MAST4 and recombinant FOXO1,FOXO1 phosphorylation in an in vitro kinase assay with immunoprecipitated MAST4 mutant
"microtubule-associated Ser/Thr kinase 4 (MAST4), immunoprecipitated from lysates of neuron-differentiated SH-SY5Y cells or of human temporal lobe autopsy samples",Increased FOXO1 phosphorylation was observed in MAST4 immunoprecipitates from cells treated with 5 µM but not 50 µM 27OHC,
"MAST4E682A, putative kinase-null MAST4 mutant",,Immunoprecipitates of MAST4E682A did not phosphorylate FOXO1 (not shown)
